Experimental data as given in patent publication US20200087347 (published 2020).
[ ]: non-standard residue; d: D form.

Legend:
Test in all cases: competition
integrin αvβ6 = molecular target: T1, integrin αvβ6 (human, UniProt P06756)
T1 chain 1: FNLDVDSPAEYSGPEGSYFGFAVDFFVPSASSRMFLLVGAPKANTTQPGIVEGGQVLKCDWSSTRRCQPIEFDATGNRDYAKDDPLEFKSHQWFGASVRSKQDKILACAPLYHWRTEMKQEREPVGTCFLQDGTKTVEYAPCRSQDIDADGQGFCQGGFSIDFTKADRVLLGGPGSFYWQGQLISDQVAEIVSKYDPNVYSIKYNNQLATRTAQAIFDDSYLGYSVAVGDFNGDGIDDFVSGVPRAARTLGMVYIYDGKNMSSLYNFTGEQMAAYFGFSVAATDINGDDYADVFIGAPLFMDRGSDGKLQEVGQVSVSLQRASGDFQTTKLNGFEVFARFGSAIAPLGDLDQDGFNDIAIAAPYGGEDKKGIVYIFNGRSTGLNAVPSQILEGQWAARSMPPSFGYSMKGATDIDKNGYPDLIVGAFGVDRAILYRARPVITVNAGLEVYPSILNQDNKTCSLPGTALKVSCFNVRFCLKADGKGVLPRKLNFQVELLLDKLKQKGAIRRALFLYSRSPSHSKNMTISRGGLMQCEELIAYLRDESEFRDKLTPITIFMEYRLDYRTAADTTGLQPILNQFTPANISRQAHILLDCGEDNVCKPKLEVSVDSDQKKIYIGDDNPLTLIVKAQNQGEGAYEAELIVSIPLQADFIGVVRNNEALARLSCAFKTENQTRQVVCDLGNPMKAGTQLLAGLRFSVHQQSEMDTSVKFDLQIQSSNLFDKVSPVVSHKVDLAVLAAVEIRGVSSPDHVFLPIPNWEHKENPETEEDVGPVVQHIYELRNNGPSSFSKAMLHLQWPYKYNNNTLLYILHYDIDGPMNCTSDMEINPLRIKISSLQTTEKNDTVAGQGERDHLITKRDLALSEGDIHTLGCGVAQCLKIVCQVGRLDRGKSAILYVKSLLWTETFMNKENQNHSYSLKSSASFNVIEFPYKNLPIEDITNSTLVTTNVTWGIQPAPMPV
T1 chain 2: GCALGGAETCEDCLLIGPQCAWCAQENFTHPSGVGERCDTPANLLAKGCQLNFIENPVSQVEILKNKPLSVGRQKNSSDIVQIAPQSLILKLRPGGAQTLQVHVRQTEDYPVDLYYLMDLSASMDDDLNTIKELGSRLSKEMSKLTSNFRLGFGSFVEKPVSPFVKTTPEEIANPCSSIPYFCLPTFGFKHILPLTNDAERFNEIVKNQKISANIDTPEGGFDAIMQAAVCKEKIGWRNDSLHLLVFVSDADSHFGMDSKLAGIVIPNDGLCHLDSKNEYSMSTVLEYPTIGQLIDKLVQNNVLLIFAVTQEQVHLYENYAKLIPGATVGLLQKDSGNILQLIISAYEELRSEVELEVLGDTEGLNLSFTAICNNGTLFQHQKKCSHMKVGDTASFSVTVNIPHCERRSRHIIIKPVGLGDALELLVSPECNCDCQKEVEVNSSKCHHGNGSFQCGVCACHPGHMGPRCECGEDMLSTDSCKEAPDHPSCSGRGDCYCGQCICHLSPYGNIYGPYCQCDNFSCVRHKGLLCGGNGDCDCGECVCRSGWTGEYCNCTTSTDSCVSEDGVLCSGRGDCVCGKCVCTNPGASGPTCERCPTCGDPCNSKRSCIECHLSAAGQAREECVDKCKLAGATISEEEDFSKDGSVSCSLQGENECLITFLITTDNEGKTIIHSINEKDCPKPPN

integrin αvβ5 = molecular target: T2, integrin αvβ5 (human, UniProt P06756)
T2 chain 1: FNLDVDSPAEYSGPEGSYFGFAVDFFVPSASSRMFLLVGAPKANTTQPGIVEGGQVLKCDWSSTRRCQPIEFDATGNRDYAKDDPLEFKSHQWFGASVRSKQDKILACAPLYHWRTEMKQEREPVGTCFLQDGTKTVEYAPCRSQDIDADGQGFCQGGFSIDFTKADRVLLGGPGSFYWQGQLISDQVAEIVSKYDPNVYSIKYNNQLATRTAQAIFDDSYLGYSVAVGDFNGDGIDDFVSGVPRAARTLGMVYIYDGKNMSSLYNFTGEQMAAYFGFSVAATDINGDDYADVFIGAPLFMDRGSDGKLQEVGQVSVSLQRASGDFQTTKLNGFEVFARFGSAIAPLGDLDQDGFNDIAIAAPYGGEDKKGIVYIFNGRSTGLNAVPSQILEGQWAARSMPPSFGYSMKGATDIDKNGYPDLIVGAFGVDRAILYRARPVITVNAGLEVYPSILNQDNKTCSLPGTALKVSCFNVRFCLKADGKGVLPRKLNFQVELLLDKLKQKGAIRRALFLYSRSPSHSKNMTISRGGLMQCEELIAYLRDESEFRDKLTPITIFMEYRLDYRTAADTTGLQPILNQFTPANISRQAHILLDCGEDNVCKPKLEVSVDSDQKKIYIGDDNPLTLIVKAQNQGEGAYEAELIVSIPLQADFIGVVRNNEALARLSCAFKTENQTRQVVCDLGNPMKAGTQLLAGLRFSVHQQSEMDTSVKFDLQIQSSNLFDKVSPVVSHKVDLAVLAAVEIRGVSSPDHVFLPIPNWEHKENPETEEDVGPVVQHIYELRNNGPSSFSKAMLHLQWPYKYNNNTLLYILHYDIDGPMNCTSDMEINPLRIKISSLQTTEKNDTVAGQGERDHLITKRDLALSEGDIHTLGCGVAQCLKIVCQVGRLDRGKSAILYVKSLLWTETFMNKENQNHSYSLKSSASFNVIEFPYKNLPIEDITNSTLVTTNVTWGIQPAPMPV
T2 chain 2: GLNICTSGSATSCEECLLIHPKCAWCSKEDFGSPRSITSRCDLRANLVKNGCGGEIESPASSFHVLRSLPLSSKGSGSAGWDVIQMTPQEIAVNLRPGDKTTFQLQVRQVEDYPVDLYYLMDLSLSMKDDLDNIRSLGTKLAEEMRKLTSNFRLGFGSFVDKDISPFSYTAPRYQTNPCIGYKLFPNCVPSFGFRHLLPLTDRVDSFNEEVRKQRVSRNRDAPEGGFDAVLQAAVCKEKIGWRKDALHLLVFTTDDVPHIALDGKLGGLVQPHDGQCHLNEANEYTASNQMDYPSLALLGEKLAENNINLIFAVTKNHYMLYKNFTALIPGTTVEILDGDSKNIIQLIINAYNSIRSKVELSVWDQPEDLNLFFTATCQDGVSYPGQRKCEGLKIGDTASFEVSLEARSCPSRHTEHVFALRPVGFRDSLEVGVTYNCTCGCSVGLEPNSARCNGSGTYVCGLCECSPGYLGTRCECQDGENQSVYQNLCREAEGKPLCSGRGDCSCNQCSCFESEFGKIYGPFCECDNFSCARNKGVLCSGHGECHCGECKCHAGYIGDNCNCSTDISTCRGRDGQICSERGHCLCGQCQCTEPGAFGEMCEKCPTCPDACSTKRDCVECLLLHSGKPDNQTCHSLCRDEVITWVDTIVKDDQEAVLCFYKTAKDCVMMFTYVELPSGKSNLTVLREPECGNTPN

integrin αvβ3 = molecular target: T3, integrin αvβ3 (human, UniProt P06756)
T3 chain 1: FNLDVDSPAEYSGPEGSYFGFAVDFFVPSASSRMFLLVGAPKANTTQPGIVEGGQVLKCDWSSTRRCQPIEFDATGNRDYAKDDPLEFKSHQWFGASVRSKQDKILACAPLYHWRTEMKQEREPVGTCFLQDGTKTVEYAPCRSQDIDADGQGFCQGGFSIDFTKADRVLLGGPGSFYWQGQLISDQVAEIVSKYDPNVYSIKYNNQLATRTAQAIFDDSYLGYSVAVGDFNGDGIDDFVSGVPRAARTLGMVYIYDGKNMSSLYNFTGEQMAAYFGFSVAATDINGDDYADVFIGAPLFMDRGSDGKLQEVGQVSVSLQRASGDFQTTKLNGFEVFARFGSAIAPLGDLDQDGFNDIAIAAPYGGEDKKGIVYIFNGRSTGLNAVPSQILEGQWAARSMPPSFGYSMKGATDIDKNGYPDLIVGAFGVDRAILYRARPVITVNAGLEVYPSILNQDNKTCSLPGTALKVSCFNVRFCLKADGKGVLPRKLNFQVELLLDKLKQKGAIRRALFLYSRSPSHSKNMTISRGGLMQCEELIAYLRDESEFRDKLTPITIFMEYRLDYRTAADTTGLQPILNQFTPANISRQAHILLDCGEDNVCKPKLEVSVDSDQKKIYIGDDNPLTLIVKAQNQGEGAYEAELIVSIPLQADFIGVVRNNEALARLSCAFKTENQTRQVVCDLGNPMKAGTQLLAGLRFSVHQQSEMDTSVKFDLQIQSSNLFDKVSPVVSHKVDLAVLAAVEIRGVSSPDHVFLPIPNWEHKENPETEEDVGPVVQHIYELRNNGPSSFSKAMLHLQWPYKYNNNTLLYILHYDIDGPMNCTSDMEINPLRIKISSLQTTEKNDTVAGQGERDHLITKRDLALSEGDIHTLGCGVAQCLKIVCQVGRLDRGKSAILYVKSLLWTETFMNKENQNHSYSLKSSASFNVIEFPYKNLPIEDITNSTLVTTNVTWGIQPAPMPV
T3 chain 2: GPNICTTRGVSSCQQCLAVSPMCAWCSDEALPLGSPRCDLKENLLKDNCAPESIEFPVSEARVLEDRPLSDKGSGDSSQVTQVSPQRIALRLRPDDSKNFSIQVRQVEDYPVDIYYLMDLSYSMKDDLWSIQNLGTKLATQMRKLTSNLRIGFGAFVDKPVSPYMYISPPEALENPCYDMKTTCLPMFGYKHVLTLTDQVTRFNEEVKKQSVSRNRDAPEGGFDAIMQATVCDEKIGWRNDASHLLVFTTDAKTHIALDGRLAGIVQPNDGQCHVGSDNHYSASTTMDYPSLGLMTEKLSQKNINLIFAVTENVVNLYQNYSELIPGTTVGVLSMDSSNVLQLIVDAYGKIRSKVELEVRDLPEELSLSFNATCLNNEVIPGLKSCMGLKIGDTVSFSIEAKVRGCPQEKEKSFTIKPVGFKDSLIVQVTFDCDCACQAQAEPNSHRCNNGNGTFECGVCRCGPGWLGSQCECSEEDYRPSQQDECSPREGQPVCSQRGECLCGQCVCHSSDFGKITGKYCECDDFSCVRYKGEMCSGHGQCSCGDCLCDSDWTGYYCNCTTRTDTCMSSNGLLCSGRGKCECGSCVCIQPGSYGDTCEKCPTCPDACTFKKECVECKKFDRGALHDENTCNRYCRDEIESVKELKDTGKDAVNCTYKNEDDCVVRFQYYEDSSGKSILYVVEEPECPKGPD

integrin αvβ8 = molecular target: T4, integrin αvβ8 (human, UniProt P06756)
T4 chain 1: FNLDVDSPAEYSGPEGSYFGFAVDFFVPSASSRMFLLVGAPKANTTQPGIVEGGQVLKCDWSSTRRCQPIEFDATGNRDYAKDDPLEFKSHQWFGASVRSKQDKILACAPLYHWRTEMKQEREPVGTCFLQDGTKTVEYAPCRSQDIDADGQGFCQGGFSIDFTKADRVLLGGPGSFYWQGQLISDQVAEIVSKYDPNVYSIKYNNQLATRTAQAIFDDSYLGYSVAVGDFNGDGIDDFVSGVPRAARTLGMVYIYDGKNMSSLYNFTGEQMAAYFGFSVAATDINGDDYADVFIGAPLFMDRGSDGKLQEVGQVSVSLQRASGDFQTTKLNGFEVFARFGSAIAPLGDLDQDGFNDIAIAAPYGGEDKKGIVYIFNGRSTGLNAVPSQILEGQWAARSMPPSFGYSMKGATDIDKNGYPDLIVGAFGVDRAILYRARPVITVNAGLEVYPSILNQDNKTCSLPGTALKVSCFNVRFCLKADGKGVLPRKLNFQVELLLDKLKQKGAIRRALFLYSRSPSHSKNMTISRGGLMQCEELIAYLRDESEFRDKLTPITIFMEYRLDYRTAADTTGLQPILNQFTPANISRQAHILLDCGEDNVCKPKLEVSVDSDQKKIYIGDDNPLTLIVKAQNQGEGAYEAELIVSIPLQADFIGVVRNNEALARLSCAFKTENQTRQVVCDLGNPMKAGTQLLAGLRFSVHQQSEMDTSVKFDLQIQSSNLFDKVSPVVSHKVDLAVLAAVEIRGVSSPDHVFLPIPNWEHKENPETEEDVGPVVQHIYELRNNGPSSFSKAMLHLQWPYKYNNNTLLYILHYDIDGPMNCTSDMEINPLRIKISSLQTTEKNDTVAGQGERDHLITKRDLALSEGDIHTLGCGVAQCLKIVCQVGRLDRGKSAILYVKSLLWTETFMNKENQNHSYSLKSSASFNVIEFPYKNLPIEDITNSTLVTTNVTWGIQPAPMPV
T4 chain 2: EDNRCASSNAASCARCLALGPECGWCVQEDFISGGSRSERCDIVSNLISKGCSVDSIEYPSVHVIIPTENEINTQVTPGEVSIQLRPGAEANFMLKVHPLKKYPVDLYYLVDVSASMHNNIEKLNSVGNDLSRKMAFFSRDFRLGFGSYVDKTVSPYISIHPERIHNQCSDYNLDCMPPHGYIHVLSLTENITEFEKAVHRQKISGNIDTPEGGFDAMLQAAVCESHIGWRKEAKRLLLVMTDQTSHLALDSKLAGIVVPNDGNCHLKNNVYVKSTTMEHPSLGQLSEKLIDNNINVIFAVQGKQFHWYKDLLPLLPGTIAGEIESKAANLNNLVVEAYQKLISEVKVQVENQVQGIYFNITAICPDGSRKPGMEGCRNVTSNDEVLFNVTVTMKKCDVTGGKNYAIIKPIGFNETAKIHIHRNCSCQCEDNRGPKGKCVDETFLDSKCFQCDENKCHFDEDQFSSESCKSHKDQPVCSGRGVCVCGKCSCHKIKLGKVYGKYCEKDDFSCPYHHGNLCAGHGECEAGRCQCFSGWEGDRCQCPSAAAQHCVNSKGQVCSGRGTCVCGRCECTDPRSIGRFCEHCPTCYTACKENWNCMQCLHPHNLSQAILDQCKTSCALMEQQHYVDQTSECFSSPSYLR

integrin αIIbβ3 = integrin αIIbβ3 (human, UniProt P08514)
integrin α5β1 = integrin α5β1 (human, UniProt P08648)
Chain of integrin α5β1 (P08648 42-1049, chain 1 of 2): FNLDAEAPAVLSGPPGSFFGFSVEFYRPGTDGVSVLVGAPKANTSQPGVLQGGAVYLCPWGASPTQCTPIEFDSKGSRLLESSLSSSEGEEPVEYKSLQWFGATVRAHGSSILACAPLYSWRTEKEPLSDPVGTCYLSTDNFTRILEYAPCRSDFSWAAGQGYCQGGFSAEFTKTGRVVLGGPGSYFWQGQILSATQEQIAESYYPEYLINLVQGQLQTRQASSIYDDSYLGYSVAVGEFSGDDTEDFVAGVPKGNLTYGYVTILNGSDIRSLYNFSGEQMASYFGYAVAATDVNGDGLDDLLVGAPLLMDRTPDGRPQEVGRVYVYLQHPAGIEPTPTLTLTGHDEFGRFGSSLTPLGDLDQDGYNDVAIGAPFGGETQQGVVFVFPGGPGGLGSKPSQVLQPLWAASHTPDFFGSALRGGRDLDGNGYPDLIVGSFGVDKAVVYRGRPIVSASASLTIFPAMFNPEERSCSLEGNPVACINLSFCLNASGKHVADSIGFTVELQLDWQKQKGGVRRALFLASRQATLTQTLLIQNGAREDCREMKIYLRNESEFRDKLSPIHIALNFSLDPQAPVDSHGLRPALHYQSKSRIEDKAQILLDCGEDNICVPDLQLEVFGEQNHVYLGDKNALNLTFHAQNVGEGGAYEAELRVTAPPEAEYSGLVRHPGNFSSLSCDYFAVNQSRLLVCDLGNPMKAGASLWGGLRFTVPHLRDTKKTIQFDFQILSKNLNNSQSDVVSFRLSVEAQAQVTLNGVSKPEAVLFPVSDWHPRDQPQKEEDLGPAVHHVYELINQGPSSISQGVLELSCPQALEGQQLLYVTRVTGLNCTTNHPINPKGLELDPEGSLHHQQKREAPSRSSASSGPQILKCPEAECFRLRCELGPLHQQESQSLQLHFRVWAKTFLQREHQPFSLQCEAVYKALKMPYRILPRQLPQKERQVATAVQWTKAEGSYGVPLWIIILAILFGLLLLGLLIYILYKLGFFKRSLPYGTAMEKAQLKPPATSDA
Chain of integrin α5β1 (chain, as listed by the source, chain 2 of 2): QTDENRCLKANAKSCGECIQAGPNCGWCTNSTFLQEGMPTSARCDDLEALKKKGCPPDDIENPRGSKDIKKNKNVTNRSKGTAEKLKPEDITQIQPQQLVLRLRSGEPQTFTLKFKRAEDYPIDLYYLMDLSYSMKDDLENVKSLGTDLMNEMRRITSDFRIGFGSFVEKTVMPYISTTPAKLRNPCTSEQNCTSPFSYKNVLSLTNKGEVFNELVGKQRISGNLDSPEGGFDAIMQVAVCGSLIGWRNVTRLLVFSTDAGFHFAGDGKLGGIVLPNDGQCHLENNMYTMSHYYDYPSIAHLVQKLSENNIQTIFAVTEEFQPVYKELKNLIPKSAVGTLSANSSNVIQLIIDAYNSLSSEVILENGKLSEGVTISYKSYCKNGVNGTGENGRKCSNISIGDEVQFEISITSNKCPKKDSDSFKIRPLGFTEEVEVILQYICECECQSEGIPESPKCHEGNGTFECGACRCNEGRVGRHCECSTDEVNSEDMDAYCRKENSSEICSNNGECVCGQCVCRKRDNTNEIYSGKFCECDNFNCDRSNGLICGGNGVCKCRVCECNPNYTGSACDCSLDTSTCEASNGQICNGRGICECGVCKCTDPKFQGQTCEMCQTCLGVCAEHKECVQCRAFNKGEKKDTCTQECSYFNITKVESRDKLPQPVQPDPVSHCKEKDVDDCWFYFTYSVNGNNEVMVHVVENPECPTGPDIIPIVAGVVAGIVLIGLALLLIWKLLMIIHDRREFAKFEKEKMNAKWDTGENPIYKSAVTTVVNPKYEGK

- IC50 (integrin αvβ6): 210 nM
- IC50 (integrin αvβ5): > 1000 nM
- IC50 (integrin αvβ3): > 1000 nM
- IC50 (integrin αvβ8): 0.93 nM
- IC50 (integrin αIIbβ3): > 1000 nM
- IC50 (integrin α5β1): > 1000 nM
Binder: cyclo(RGDL[dP]PGL) [Compound 2]
